Measurements from the supplement of paper PMC12636428.

Tested on: Saccharomyces cerevisiae
Test: transcriptional activation domain activity (GFP:mCherry ratio, weighted mean of sorted bins, harmonized to initial dataset scale) (arbitrary fluorescence ratio units); higher = stronger transcriptional activation
Conditions: beta-estradiol 1 µM; induction time 4 h
How it was run: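 Sorting into 8 bins by GFP:mCherry ratio followed a 4-hour hold at 30 °C after cultures were diluted 1:5 into SC with 1 uM beta-estradiol. The yeast diploids carried a GFP reporter and had barcoded protein tiles, fused to an estradiol-inducible synthetic transcription factor, integrated at URA3. Barcodes were then sequenced, and tiles with under 50 reads were removed. Activation activity is the read-weighted mean of bin median fluorescence, averaged across barcodes and linearly mapped onto the initial dataset scale.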

Sequence	transcriptional activation domain activity
LIIPIIMDHLYPVPYMAFWDVSCFVNKVYFMQIVWLFNLPFLLHLLITLICYP	68100
GHFVRVGTTFFTMYAVNIFLSYARYIAAHFRISVIVISRLMLNLRNPVTFEST	60400
